From paper doi:10.1101/2025.04.18.649599
Values belong to the substance of their own block, whether it stands above or below them.

Tests used:
Assay in all cases: photon counting histogram
[1] = target: HaloTag-VfAuLOV (light-oxygen-voltage (LOV) domain of V. frigida Aurochrome1) (V. frigida)
[2] = target: HaloTag-AtCRY2(W374A) (A. thaliana)
[3] = target: HaloTag-AtCRY2 (photolyase homology region of cryptochrome 2 from A. thaliana) (A. thaliana)
[4] = target: HaloTag-HsCRY2 (human CRY2 photolyase homology region) (human)
[5] = target: HaloTag-bZip-VfAuLOV (V. frigida)

stoichiometry N [1]: 2
Substance: HaloTag-VfAuLOV (light-oxygen-voltage (LOV) domain of V. frigida Aurochrome1) (domain or fragment)

Substance: HaloTag-AtCRY2(W374A) (domain or fragment)
relative brightness (relative to the monomeric standard) [2]: 1.5

Substance: HaloTag-AtCRY2 (photolyase homology region of cryptochrome 2 from A. thaliana) (domain or fragment)
relative brightness (relative to the monomeric standard) [3]: 2 to 4
relative brightness at 750 nM (relative to the monomeric standard) [3]: 3
stoichiometry N [3]: 4

Substance: HaloTag-HsCRY2 (human CRY2 photolyase homology region) (domain or fragment)
relative brightness at about 750 nM (relative to the monomeric standard) [4]: 1.6

stoichiometry N [5]: 2
Substance: HaloTag-bZip-VfAuLOV (domain or fragment)
